Measured values reported in patent US20260327578A1, “TRANSGLUTAMINASES AND USES THEREOF” (CURIE CO. INC., priority 2023, published 2026).
Residue numbers refer to the chain shown, from its start. Numbers in names are those of the source.

B1: A5: Tgase variant S2P Q50S Q74A K91H Q124L K151R K152R N282D S284A H289I S299E relative to SEQ ID NO: 2 (protein, UniProt P81453 77-407, looked up, variant S2P Q50S Q74A K91H Q124L K151R K152R N282D S284A H289I S299E)
Protein-glutamine …: DPDDRVTPPAEPLDRMPDPYRPSYGRAETVVNNYIRKWQQVYSHRDGRKSQMTEEQREWLSYGCVGVTWVNSGAYPTNRLAFASFDEDRFHNELKNGRPRSGETRAEFEGRVAKESFDEEKGFLRAREVASVMNRALENAHDESAYLDNLRRELANGNDALRNEDARSPFYSALRNTPSFKERNGGNHDPSRMKAVIYSKHFWSGQDRSSSADKRKYGDPDAFRPAPGTGLVDMSRDRNIPRSPTSPGEGFVNFDYGWFGAQTEADADKTVWTHGNHYHAPDGALGAMIVYESKFRNWEEGYSDFDRGAYVITFIPKSWNTAPDKVKQGWP
B2: A13: Tgase variant S2P Q50S Q51E Q74A K91H Q124L K151R K152R F170I N282M G283A H289I S299V relative to SEQ ID NO: 2 (protein, UniProt P81453 77-407, looked up, variant S2P Q50S Q51E Q74A K91H Q124L K151R K152R F170I N282M G283A H289I S299V)
Protein-glutamine …: B1 Protein-glutamine … with Q51E, F170I, D282M, G283A, A284S, E299V
B3: A10: Tgase variant S2P A10T Q50S Q74A K91H Q124L S131I K151R K152R N282M G283A S299V relative to SEQ ID NO: 2 (protein, UniProt P81453 77-407, looked up, variant S2P A10T Q50S Q74A K91H Q124L S131I K151R K152R N282M G283A S299V)
Protein-glutamine …: B1 Protein-glutamine … with A10T, S131I, D282M, G283A, A284S, I289H, E299V
B4: A1: Tgase variant S2P Q50S Q74A K91H Q124L K151R K152R N282R relative to SEQ ID NO: 2 (protein, UniProt P81453 77-407, looked up, variant S2P Q50S Q74A K91H Q124L K151R K152R N282R)
Protein-glutamine …: B1 Protein-glutamine … with D282R, A284S, I289H, E299S
B5: A17: Tgase variant S2P D14N Q50S Q74A K91H Q124L K151R K152R N282M G283A relative to SEQ ID NO: 2 (protein, UniProt P81453 77-407, looked up, variant S2P D14N Q50S Q74A K91H Q124L K151R K152R N282M G283A)
Protein-glutamine …: B1 Protein-glutamine … with D14N, D282M, G283A, A284S, I289H, E299S
B6: A12: Tgase variant S2P R15T Q50S Q74A K91H Q124L K151R K152R N282M G283A H289I relative to SEQ ID NO: 2 (protein, UniProt P81453 77-407, looked up, variant S2P R15T Q50S Q74A K91H Q124L K151R K152R N282M G283A H289I)
Protein-glutamine …: B1 Protein-glutamine … with R15T, D282M, G283A, A284S, E299S
B7: A9: Tgase variant S2P Q50S Q74A K91H K95E Q124L K151R K152R N282M G283A S299V relative to SEQ ID NO: 2 (protein, UniProt P81453 77-407, looked up, variant S2P Q50S Q74A K91H K95E Q124L K151R K152R N282M G283A S299V)
Protein-glutamine …: B1 Protein-glutamine … with K95E, D282M, G283A, A284S, I289H, E299V
B8: A7: Tgase variant S2P Q50S Q74A K91H Q124L K151R K152R N282M G283A S299V relative to SEQ ID NO: 2 (protein, UniProt P81453 77-407, looked up, variant S2P Q50S Q74A K91H Q124L K151R K152R N282M G283A S299V)
Protein-glutamine …: B1 Protein-glutamine … with D282M, G283A, A284S, I289H, E299V
B9: A14: Tgase variant S2P Q50S Q51E Q74A K91H Q124L Y146F K151R K152R N282M G283A H289I S299V relative to SEQ ID NO: 2 (protein, UniProt P81453 77-407, looked up, variant S2P Q50S Q51E Q74A K91H Q124L Y146F K151R K152R N282M G283A H289I S299V)
Protein-glutamine …: B1 Protein-glutamine … with Q51E, Y146F, D282M, G283A, A284S, E299V
B10: A8: Tgase variant S2P D14W Q50S Q74A K91H Q124L K151R K152R N282M G283A S299A relative to SEQ ID NO: 2 (protein, UniProt P81453 77-407, looked up, variant S2P D14W Q50S Q74A K91H Q124L K151R K152R N282M G283A S299A)
Protein-glutamine …: B1 Protein-glutamine … with D14W, D282M, G283A, A284S, I289H, E299A
B11: A6: Tgase variant S2P D14W Q50S Q74A K91H Q124L K151R K152R A166W N282M G283A S299V relative to SEQ ID NO: 2 (protein, UniProt P81453 77-407, looked up, variant S2P D14W Q50S Q74A K91H Q124L K151R K152R A166W N282M G283A S299V)
Protein-glutamine …: B1 Protein-glutamine … with D14W, A166W, D282M, G283A, A284S, I289H, E299V
B12: A11: Tgase variant S2P D14W Q50S Q74A K91H Q124L S131I K151R K152R N282M G283A S299V relative to SEQ ID NO: 2 (protein, UniProt P81453 77-407, looked up, variant S2P D14W Q50S Q74A K91H Q124L S131I K151R K152R N282M G283A S299V)
Protein-glutamine …: B1 Protein-glutamine … with D14W, S131I, D282M, G283A, A284S, I289H, E299V
B13: A18: Tgase variant S2P Q50S Q51A Q74A K91H Q124L K151R K152R N282M G283A H289I relative to SEQ ID NO: 2 (protein, UniProt P81453 77-407, looked up, variant S2P Q50S Q51A Q74A K91H Q124L K151R K152R N282M G283A H289I)
Protein-glutamine …: B1 Protein-glutamine … with Q51A, D282M, G283A, A284S, E299S
B14: A16: Tgase variant S2P D18T Q50S Q74A K91H Q124L S131R V132L K151R K152R N282M G283A relative to SEQ ID NO: 2 (protein, UniProt P81453 77-407, looked up, variant S2P D18T Q50S Q74A K91H Q124L S131R V132L K151R K152R N282M G283A)
Protein-glutamine …: B1 Protein-glutamine … with D18T, S131R, V132L, D282M, G283A, A284S, I289H, E299S
B15: A2: Tgase variant S2P Q50S Q74A K91H Q124L K151R K152R N282E S284A relative to SEQ ID NO: 2 (protein, UniProt P81453 77-407, looked up, variant S2P Q50S Q74A K91H Q124L K151R K152R N282E S284A)
Protein-glutamine …: B1 Protein-glutamine … with D282E, I289H, E299S
B16: A15: Tgase variant S2P Q50S Q74A K91H K95E Q124L K151R K152R N282M G283A relative to SEQ ID NO: 2 (protein, UniProt P81453 77-407, looked up, variant S2P Q50S Q74A K91H K95E Q124L K151R K152R N282M G283A)
Protein-glutamine …: B1 Protein-glutamine … with K95E, D282M, G283A, A284S, I289H, E299S

System: N,N-dimethylcasein
Experiment: Productivity: total product formed after 24 hours (protein functionalization assay)
Assay type: biochemical
Parameters: key: −: a reduction in activity; +: an improvement between 1.2 and 2-fold; ++: an improvement between 2 and 5-fold; +++: an improvement greater than 5-fold
Conditions: improvement relative to wild-type Tgase (SEQ ID NO: 2); total product after 24 h
Experimental: (§1) Enzymatic “productivity” is a measure of product formation or substrate disappearance over time, at a prescribed temperature under specified reaction conditions. It is the measure both the durability and reaction yield of the enzyme variant. In this instance, productivity is defined as total product formed over 24-hours at a constant substrate concentration when the enzyme is the rate limiting factor. The time is defined as 24 hours, which represents approaching or surpassing burnout, denaturation, or self-reaction of the enzyme variant. In other words, variants with higher productivity deliver a higher product yield in 24-hours than variants with lower productivity produce in the same period of time. “Rate” refers to the initial rate for an enzymatic reaction, at a prescribed temperature under specified reaction conditions. The enzyme produces product at an initial rate that is approximately linear for a short period after the start of the reaction. When concentrations of enzyme and substrate are the same across the sample set, initial rates between enzyme variants can be compared. In this instance, the linear range for production of product occurs in one hour. Enzyme variants with faster initial rates deliver a higher product yield in one hour than variants with slower initial rates produce at the same time-period. In some cases, improvements to initial rates also deliver a more productive variant. In some cases, improvements to initial rates result in faster decay of the enzyme variant reducing overall enzymatic productivity. Productivity and rate may be assessed as described in Example 2.
(§2) Table 6 depicts variants of Streptomyces mobaraensis Tgase and improvement to productivity and/or rate relative to wild-type Tgase (SEQ ID NO. 2) as determined in Example 3. Numbering of amino acid positions is in reference to the mature S. mobaraensis Tgase sequence depicted in SEQ ID NO. 2. A “−” indicates a reduction in activity. A “+” indicates an improvement between 1.2 and 2-fold. A “++” indicates an improvement between 2 and 5-fold. A “+++” indicates an improvement greater than 5-fold.
To evaluate productivity, total product formed was measured after 24-hours of incubation, using the assay described in Example 4B. The time is defined as 24 hours which represents approaching or surpassing burnout, denaturation, or self-reaction of the enzyme variant.
(§3) Protein functionalization by Tgase variants was determined by the fluorogenic labeling of casein using monodansylcadaverine (e.g., a commercially available kit such as the Transglutaminase Fluorogenic Activity Assay Kit, T036, Zedira, Germany). Tgase activity was monitored by measuring fluorescence (excitation wavelength 332 nm; emission wavelength 500 nm) using a BioTek Synergy H1 microplate reader. Transglutaminase-catalyzed covalent coupling (crosslinking) of monodansylcadaverine with N,N-dimethylcasein produces a product that causes a shift in intensity and wavelength of fluorescence of the dansyl group now linked to the casein. The relative transglutaminase activity is shown by increase of fluorescence intensity over time. Enzyme variant loading was optimized based on expression levels, ensuring enzyme was the rate limiting factor. Briefly, cell-free reactions (set up as described in Example 2A) were first diluted 10-fold using phosphate buffer, pH 7.4, and a 5 microliter aliquot was analyzed.

Row | Molecule | Productivity
1 | B1 | + (an improvement between 1.2 and 2-fold)
2 | B2 | + (an improvement between 1.2 and 2-fold)
3 | B3 | + (an improvement between 1.2 and 2-fold)
4 | B4 | + (an improvement between 1.2 and 2-fold)
5 | B5 | −
6 | B6 | + (an improvement between 1.2 and 2-fold)
7 | B7 | + (an improvement between 1.2 and 2-fold)
8 | B8 | + (an improvement between 1.2 and 2-fold)
9 | B9 | + (an improvement between 1.2 and 2-fold)
10 | B10 | + (an improvement between 1.2 and 2-fold)
11 | B11 | ++ (an improvement between 2 and 5-fold)
12 | B12 | + (an improvement between 1.2 and 2-fold)
13 | B13 | −
14 | B14 | −
15 | B15 | −
16 | B16 | −

System: N,N-dimethylcasein
Experiment: Rate of product formation over 60 minutes (protein functionalization assay)
Assay type: biochemical
Parameters: key: −: a reduction in activity; +: an improvement between 1.2 and 2-fold; ++: an improvement between 2 and 5-fold; +++: an improvement greater than 5-fold
Conditions: improvement relative to wild-type Tgase (SEQ ID NO: 2); initial rate over 60 min
Experimental: as §1, §2
Rate was assessed by measuring the rate of product formation over 60 minutes of incubation using a kinetic method to take scans every 60 seconds to determine product formation, using reaction conditions as described in Example 4B. The enzyme produces product at an initial rate that is approximately linear for the first one hour of the reaction. The concentrations of enzyme and substrate are the same across the sample set for each enzyme variant. Enzyme variants with faster initial rates deliver a higher product yield in one hour than variants with slower initial rates produce at the same time-period.
as §3

Row | Molecule | Rate
17 | B1 | −
18 | B2 | + (an improvement between 1.2 and 2-fold)
19 | B3 | + (an improvement between 1.2 and 2-fold)
20 | B4 | −
21 | B5 | + (an improvement between 1.2 and 2-fold)
22 | B6 | + (an improvement between 1.2 and 2-fold)
23 | B7 | + (an improvement between 1.2 and 2-fold)
24 | B8 | + (an improvement between 1.2 and 2-fold)
25 | B9 | −
26 | B10 | ++ (an improvement between 2 and 5-fold)
27 | B11 | +++ (an improvement greater than 5-fold)
28 | B12 | + (an improvement between 1.2 and 2-fold)
29 | B13 | + (an improvement between 1.2 and 2-fold)
30 | B14 | ++ (an improvement between 2 and 5-fold)
31 | B15 | + (an improvement between 1.2 and 2-fold)
32 | B16 | + (an improvement between 1.2 and 2-fold)
